Reference: the RNAGym collection of RNA variant scans (doi:10.1021/acssynbio.7b00057)

B1: Pistol ribozyme (parent)
chain: GGGUCGUUGUUCCAUAAUCGCGUGGAUAUGGCACGCAAGUUUCUACCGGGCACCGUAAAUGUCCGACUGGAGCCGUUCGGGCGGCUAUAAACAGACCUCAGGCCCGAAGCGUGGCGGCACCUGCCGCCGGUGGUAAAAAAGAUCGGAAGAGCACACGUCU

Variants of: B1
Assay: aptazyme ON/OFF ratio, guanine; higher = stronger switching; co-transcriptional cleavage with and without guanine

Row | Variant | aptazyme ON/OFF ratio
1 | GGGUCGAUCAGAUAUAAUCGCGUGGAUAUGGCACGCAAGUUUCUACCGGGCACCGUAAAUGUCCGACUGGAGCCGUUCGGGCGGCUAUAAACAGACCUCAGGCCCGAAGCGUGGCGGCACCUGCCGCCGGUGGUAAAAAAGAUCGGAAGAGCACACGUCU [U7A G9C U10A U11G C12A C13U] | 1.05
2 | GGGUCGAUCAGAAAUAAUCGCGUGGAUAUGGCACGCAAGUUUCUACCGGGCACCGUAAAUGUCCGACUGGAGCCGUUCGGGCGGCUAUAAACAGACCUCAGGCCCGAAGCGUGGCGGCACCUGCCGCCGGUGGUAAAAAAGAUCGGAAGAGCACACGUCU [U7A G9C U10A U11G C12A C13A] | 1.11
3 | GGGUCGAUCAGAGAUAAUCGCGUGGAUAUGGCACGCAAGUUUCUACCGGGCACCGUAAAUGUCCGACUGGAGCCGUUCGGGCGGCUAUAAACAGACCUCAGGCCCGAAGCGUGGCGGCACCUGCCGCCGGUGGUAAAAAAGAUCGGAAGAGCACACGUCU [U7A G9C U10A U11G C12A C13G] | 1.07
4 | GGGUCGAUCCUCCAUAAUCGCGUGGAUAUGGCACGCAAGUUUCUACCGGGCACCGUAAAUGUCCGACUGGAGCCGUUCGGGCGGCUAUAAACAGACCUCAGGCCCGAAGCGUGGCGGCACCUGCCGCCGGUGGUAAAAAAGAUCGGAAGAGCACACGUCU [U7A G9C U10C] | 2.21
5 | GGGUCGAUCAGUUAUAAUCGCGUGGAUAUGGCACGCAAGUUUCUACCGGGCACCGUAAAUGUCCGACUGGAGCCGUUCGGGCGGCUAUAAACAGACCUCAGGCCCGAAGCGUGGCGGCACCUGCCGCCGGUGGUAAAAAAGAUCGGAAGAGCACACGUCU [U7A G9C U10A U11G C12U C13U] | 1.16
6 | GGGUCGAUCAGUAAUAAUCGCGUGGAUAUGGCACGCAAGUUUCUACCGGGCACCGUAAAUGUCCGACUGGAGCCGUUCGGGCGGCUAUAAACAGACCUCAGGCCCGAAGCGUGGCGGCACCUGCCGCCGGUGGUAAAAAAGAUCGGAAGAGCACACGUCU [U7A G9C U10A U11G C12U C13A] | 1.03
7 | GGGUCGAUCAGUGAUAAUCGCGUGGAUAUGGCACGCAAGUUUCUACCGGGCACCGUAAAUGUCCGACUGGAGCCGUUCGGGCGGCUAUAAACAGACCUCAGGCCCGAAGCGUGGCGGCACCUGCCGCCGGUGGUAAAAAAGAUCGGAAGAGCACACGUCU [U7A G9C U10A U11G C12U C13G] | 1.07
8 | GGGUCGAUCAGGGAUAAUCGCGUGGAUAUGGCACGCAAGUUUCUACCGGGCACCGUAAAUGUCCGACUGGAGCCGUUCGGGCGGCUAUAAACAGACCUCAGGCCCGAAGCGUGGCGGCACCUGCCGCCGGUGGUAAAAAAGAUCGGAAGAGCACACGUCU [U7A G9C U10A U11G C12G C13G] | 1.12
9 | GGGUCGAUCAGGAAUAAUCGCGUGGAUAUGGCACGCAAGUUUCUACCGGGCACCGUAAAUGUCCGACUGGAGCCGUUCGGGCGGCUAUAAACAGACCUCAGGCCCGAAGCGUGGCGGCACCUGCCGCCGGUGGUAAAAAAGAUCGGAAGAGCACACGUCU [U7A G9C U10A U11G C12G C13A] | 1.06
10 | GGGUCGAUCAGGUAUAAUCGCGUGGAUAUGGCACGCAAGUUUCUACCGGGCACCGUAAAUGUCCGACUGGAGCCGUUCGGGCGGCUAUAAACAGACCUCAGGCCCGAAGCGUGGCGGCACCUGCCGCCGGUGGUAAAAAAGAUCGGAAGAGCACACGUCU [U7A G9C U10A U11G C12G C13U] | 1.18
11 | GGGUCGAUCCAACAUAAUCGCGUGGAUAUGGCACGCAAGUUUCUACCGGGCACCGUAAAUGUCCGACUGGAGCCGUUCGGGCGGCUAUAAACAGACCUCAGGCCCGAAGCGUGGCGGCACCUGCCGCCGGUGGUAAAAAAGAUCGGAAGAGCACACGUCU [U7A G9C U10C U11A C12A] | 1.06
12 | GGGUCGAUCAGCGAUAAUCGCGUGGAUAUGGCACGCAAGUUUCUACCGGGCACCGUAAAUGUCCGACUGGAGCCGUUCGGGCGGCUAUAAACAGACCUCAGGCCCGAAGCGUGGCGGCACCUGCCGCCGGUGGUAAAAAAGAUCGGAAGAGCACACGUCU [U7A G9C U10A U11G C13G] | 1.06
13 | GGGUCGAUCAGCAAUAAUCGCGUGGAUAUGGCACGCAAGUUUCUACCGGGCACCGUAAAUGUCCGACUGGAGCCGUUCGGGCGGCUAUAAACAGACCUCAGGCCCGAAGCGUGGCGGCACCUGCCGCCGGUGGUAAAAAAGAUCGGAAGAGCACACGUCU [U7A G9C U10A U11G C13A] | 1.03
14 | GGGUCGAUCAGCUAUAAUCGCGUGGAUAUGGCACGCAAGUUUCUACCGGGCACCGUAAAUGUCCGACUGGAGCCGUUCGGGCGGCUAUAAACAGACCUCAGGCCCGAAGCGUGGCGGCACCUGCCGCCGGUGGUAAAAAAGAUCGGAAGAGCACACGUCU [U7A G9C U10A U11G C13U] | 1.09
15 | GGGUCGAUCCACCAUAAUCGCGUGGAUAUGGCACGCAAGUUUCUACCGGGCACCGUAAAUGUCCGACUGGAGCCGUUCGGGCGGCUAUAAACAGACCUCAGGCCCGAAGCGUGGCGGCACCUGCCGCCGGUGGUAAAAAAGAUCGGAAGAGCACACGUCU [U7A G9C U10C U11A] | 1.07
16 | GGGUCGAUCCUGAAUAAUCGCGUGGAUAUGGCACGCAAGUUUCUACCGGGCACCGUAAAUGUCCGACUGGAGCCGUUCGGGCGGCUAUAAACAGACCUCAGGCCCGAAGCGUGGCGGCACCUGCCGCCGGUGGUAAAAAAGAUCGGAAGAGCACACGUCU [U7A G9C U10C C12G C13A] | 1.03
17 | GGGUCGAUCCUGUAUAAUCGCGUGGAUAUGGCACGCAAGUUUCUACCGGGCACCGUAAAUGUCCGACUGGAGCCGUUCGGGCGGCUAUAAACAGACCUCAGGCCCGAAGCGUGGCGGCACCUGCCGCCGGUGGUAAAAAAGAUCGGAAGAGCACACGUCU [U7A G9C U10C C12G C13U] | 1.05
18 | GGGUCGAUCCUGGAUAAUCGCGUGGAUAUGGCACGCAAGUUUCUACCGGGCACCGUAAAUGUCCGACUGGAGCCGUUCGGGCGGCUAUAAACAGACCUCAGGCCCGAAGCGUGGCGGCACCUGCCGCCGGUGGUAAAAAAGAUCGGAAGAGCACACGUCU [U7A G9C U10C C12G C13G] | 1.07

Row | Variant | aptazyme ON/OFF ratio
19 | GGGUCGAUCCUUGAUAAUCGCGUGGAUAUGGCACGCAAGUUUCUACCGGGCACCGUAAAUGUCCGACUGGAGCCGUUCGGGCGGCUAUAAACAGACCUCAGGCCCGAAGCGUGGCGGCACCUGCCGCCGGUGGUAAAAAAGAUCGGAAGAGCACACGUCU [U7A G9C U10C C12U C13G] | 1.01
20 | GGGUCGAUCCUUAAUAAUCGCGUGGAUAUGGCACGCAAGUUUCUACCGGGCACCGUAAAUGUCCGACUGGAGCCGUUCGGGCGGCUAUAAACAGACCUCAGGCCCGAAGCGUGGCGGCACCUGCCGCCGGUGGUAAAAAAGAUCGGAAGAGCACACGUCU [U7A G9C U10C C12U C13A] | 1.04
21 | GGGUCGAUCCUUUAUAAUCGCGUGGAUAUGGCACGCAAGUUUCUACCGGGCACCGUAAAUGUCCGACUGGAGCCGUUCGGGCGGCUAUAAACAGACCUCAGGCCCGAAGCGUGGCGGCACCUGCCGCCGGUGGUAAAAAAGAUCGGAAGAGCACACGUCU [U7A G9C U10C C12U C13U] | 1.06
22 | GGGUCGAUCAGGCAUAAUCGCGUGGAUAUGGCACGCAAGUUUCUACCGGGCACCGUAAAUGUCCGACUGGAGCCGUUCGGGCGGCUAUAAACAGACCUCAGGCCCGAAGCGUGGCGGCACCUGCCGCCGGUGGUAAAAAAGAUCGGAAGAGCACACGUCU [U7A G9C U10A U11G C12G] | 1.09
23 | GGGUCGAUCAGUCAUAAUCGCGUGGAUAUGGCACGCAAGUUUCUACCGGGCACCGUAAAUGUCCGACUGGAGCCGUUCGGGCGGCUAUAAACAGACCUCAGGCCCGAAGCGUGGCGGCACCUGCCGCCGGUGGUAAAAAAGAUCGGAAGAGCACACGUCU [U7A G9C U10A U11G C12U] | 1.07
24 | GGGUCGAUCAGACAUAAUCGCGUGGAUAUGGCACGCAAGUUUCUACCGGGCACCGUAAAUGUCCGACUGGAGCCGUUCGGGCGGCUAUAAACAGACCUCAGGCCCGAAGCGUGGCGGCACCUGCCGCCGGUGGUAAAAAAGAUCGGAAGAGCACACGUCU [U7A G9C U10A U11G C12A] | 1.04
25 | GGGUCGAUCCUUCAUAAUCGCGUGGAUAUGGCACGCAAGUUUCUACCGGGCACCGUAAAUGUCCGACUGGAGCCGUUCGGGCGGCUAUAAACAGACCUCAGGCCCGAAGCGUGGCGGCACCUGCCGCCGGUGGUAAAAAAGAUCGGAAGAGCACACGUCU [U7A G9C U10C C12U] | 1.17
26 | GGGUCGAUCCUACAUAAUCGCGUGGAUAUGGCACGCAAGUUUCUACCGGGCACCGUAAAUGUCCGACUGGAGCCGUUCGGGCGGCUAUAAACAGACCUCAGGCCCGAAGCGUGGCGGCACCUGCCGCCGGUGGUAAAAAAGAUCGGAAGAGCACACGUCU [U7A G9C U10C C12A] | 1.04
27 | GGGUCGAUCCUGCAUAAUCGCGUGGAUAUGGCACGCAAGUUUCUACCGGGCACCGUAAAUGUCCGACUGGAGCCGUUCGGGCGGCUAUAAACAGACCUCAGGCCCGAAGCGUGGCGGCACCUGCCGCCGGUGGUAAAAAAGAUCGGAAGAGCACACGUCU [U7A G9C U10C C12G] | 1.07
28 | GGGUCGAUCAGCCAUAAUCGCGUGGAUAUGGCACGCAAGUUUCUACCGGGCACCGUAAAUGUCCGACUGGAGCCGUUCGGGCGGCUAUAAACAGACCUCAGGCCCGAAGCGUGGCGGCACCUGCCGCCGGUGGUAAAAAAGAUCGGAAGAGCACACGUCU [U7A G9C U10A U11G] | 1.09
29 | GGGUCGAUCCUCUAUAAUCGCGUGGAUAUGGCACGCAAGUUUCUACCGGGCACCGUAAAUGUCCGACUGGAGCCGUUCGGGCGGCUAUAAACAGACCUCAGGCCCGAAGCGUGGCGGCACCUGCCGCCGGUGGUAAAAAAGAUCGGAAGAGCACACGUCU [U7A G9C U10C C13U] | 1.22
30 | GGGUCGAUCCUCAAUAAUCGCGUGGAUAUGGCACGCAAGUUUCUACCGGGCACCGUAAAUGUCCGACUGGAGCCGUUCGGGCGGCUAUAAACAGACCUCAGGCCCGAAGCGUGGCGGCACCUGCCGCCGGUGGUAAAAAAGAUCGGAAGAGCACACGUCU [U7A G9C U10C C13A] | 1.01
31 | GGGUCGAUCCUCGAUAAUCGCGUGGAUAUGGCACGCAAGUUUCUACCGGGCACCGUAAAUGUCCGACUGGAGCCGUUCGGGCGGCUAUAAACAGACCUCAGGCCCGAAGCGUGGCGGCACCUGCCGCCGGUGGUAAAAAAGAUCGGAAGAGCACACGUCU [U7A G9C U10C C13G] | 1.05
32 | GGGUCGAUCCUAGAUAAUCGCGUGGAUAUGGCACGCAAGUUUCUACCGGGCACCGUAAAUGUCCGACUGGAGCCGUUCGGGCGGCUAUAAACAGACCUCAGGCCCGAAGCGUGGCGGCACCUGCCGCCGGUGGUAAAAAAGAUCGGAAGAGCACACGUCU [U7A G9C U10C C12A C13G] | 1.04
33 | GGGUCGAUCCUAUAUAAUCGCGUGGAUAUGGCACGCAAGUUUCUACCGGGCACCGUAAAUGUCCGACUGGAGCCGUUCGGGCGGCUAUAAACAGACCUCAGGCCCGAAGCGUGGCGGCACCUGCCGCCGGUGGUAAAAAAGAUCGGAAGAGCACACGUCU [U7A G9C U10C C12A C13U] | 1.04
34 | GGGUCGAUCCUAAAUAAUCGCGUGGAUAUGGCACGCAAGUUUCUACCGGGCACCGUAAAUGUCCGACUGGAGCCGUUCGGGCGGCUAUAAACAGACCUCAGGCCCGAAGCGUGGCGGCACCUGCCGCCGGUGGUAAAAAAGAUCGGAAGAGCACACGUCU [U7A G9C U10C C12A C13A] | 1.07
35 | GGGUCGAUCACCGAUAAUCGCGUGGAUAUGGCACGCAAGUUUCUACCGGGCACCGUAAAUGUCCGACUGGAGCCGUUCGGGCGGCUAUAAACAGACCUCAGGCCCGAAGCGUGGCGGCACCUGCCGCCGGUGGUAAAAAAGAUCGGAAGAGCACACGUCU [U7A G9C U10A U11C C13G] | 1.06
36 | GGGUCGAUCACCUAUAAUCGCGUGGAUAUGGCACGCAAGUUUCUACCGGGCACCGUAAAUGUCCGACUGGAGCCGUUCGGGCGGCUAUAAACAGACCUCAGGCCCGAAGCGUGGCGGCACCUGCCGCCGGUGGUAAAAAAGAUCGGAAGAGCACACGUCU [U7A G9C U10A U11C C13U] | 1.05
